{"source": "paper PMC7092467", "about": "“Transaldolase in Bacillus methanolicus: biochemical characterization and biological role in ribulose monophosphate cycle” (BMC Microbiology, 2020)", "molecules": {"B1": {"name": "Transaldolase of Bacillus methanolicus PB1 (Ta^PB1), C-terminal hexahistidine-tagged (enzyme, UniProt I3E1B6 1-229, looked up)", "chain": "MIQNSIQRNKGGVIIKFFIDTANIDEIREAHSLGILSGVTTNPSLVAKEKNVKFHDRLREIAGLVPGSVSAEVIALDTEGMIKEGRELASIAPNITVKVPMTPESLKAVHALSKEGIKTNVTLIFSANQALLAARAGATYVSPFLGRLDDIGHNGLELISTIADIFAIHQIKTEIIAASIRHPQHVTEAALKGAHIATLPYKVILQLFKHPLTDKGIEAFLADWKKRGQ", "notes": "Transaldolase (Ta) of Bacillus methanolicus PB1, UniProt I3E1B6; also called PB1 Ta protein; PB1 Ta gene product; source: E. coli BL21 (DE3), pET28b-ta^PB1, purified (Ni-NTA chromatography)"}}, "key": {"[1]": {"molecular_target": "Recreated full-length transaldolase of Bacillus methanolicus MGA3 (Ta^MGA3rec), C-terminal hexahistidine-tagged (Bacillus methanolicus MGA3)", "test": "SEC; gel filtration of 1 mg purified Ta dissolved in 2 ml of 20 mM Tris-HCl, pH 7.8, with Ta activity assays of the eluted fractions; eluted in a single fraction corresponding to 54 kDa"}, "[2]": {"molecular_target": "the molecule itself", "test": "SEC; gel filtration of 1 mg purified Ta dissolved in 2 ml of 20 mM Tris-HCl, pH 7.8, with Ta activity assays of the eluted fractions; eluted in a single fraction corresponding to 54 kDa"}, "purified protein": {"substrate": "O=C[C@H](O)[C@H](O)COP(=O)(O)O", "test": "purified protein", "format": "biochemical, Bacillus methanolicus", "conditions": "co-substrate F6P, 50 mM Tris-HCl pH 7.8, 50 °C, 0.25 mM NADH"}}, "data": [{"molecule": "Recreated full-length transaldolase of Bacillus methanolicus MGA3 (Ta^MGA3rec), C-terminal hexahistidine-tagged (enzyme)", "values": [{"measurement": "stoichiometry N", "setting": "[1]", "value": 2}]}, {"molecule": "B1", "values": [{"measurement": "stoichiometry N", "setting": "[2]", "value": 2}, {"measurement": "Km", "setting": "purified protein", "value": 2500, "unit": "µM"}, {"measurement": "Vmax", "setting": "purified protein", "value": 8.9, "unit": "U/mg"}, {"measurement": "kcat", "setting": "purified protein", "value": 4, "unit": "s⁻¹"}, {"measurement": "kcat/Km", "setting": "purified protein", "value": 1.6, "unit": "s^− 1 mM^− 1"}]}]}
